Measured values published in PMC11087509, “Multimodal binding and inhibition of bacterial ribosomes by the antimicrobial peptides Api137 and Api88” (Nature Communications, 2024).
[ ]: non-standard residue; d: D form. Gu = N-terminal tetramethylguanidine; Orn = NCCC[C@H](N)C(=O)O

Legend:
Experiment in all cases: fluorescence polarisation; cf-labeled peptide (10 µL of 40 nmol/L) added to a 2-fold dilution series (22 steps, 10 µL) of pure 70S ribosome, 50S or 30S subunit; ribosome preparation buffer (20 mmol/L HEPES-KOH, 6 mmol/L MgCl2, 30 mmol/L NH4Cl, pH 7.6); 28 ± 1 °C, 90 min; apparent Kd (average over at least two or three sites)
Conditions in all cases: both partners purified
[1] = target: purified E. coli 30S ribosomal subunit (E. coli (endogenous in MRE600))
[2] = target: purified E. coli 70S ribosome (E. coli (endogenous in BW25113), UniProt P60723 1-201; P61175 1-110; P0ADZ0 1-100; P0A7M6 1-63; P0A7J3 1-165)
[3] = target: purified E. coli 50S ribosomal subunit (E. coli (endogenous in MRE600), UniProt P60723 1-201; P61175 1-110; P0ADZ0 1-100; P0A7M6 1-63; P0A7J3 1-165)

| Binder | fold weaker binding than to the 50S subunit [1] [fold] | Kd [2] [nM] | Kd [3] [nM] |
| --- | --- | --- | --- |
| Gu-[Orn](5(6)‑carboxyfluorescein)NNRPVYIPRPRPPHPRL-NH2 [cf-Api88 (5(6)-carboxyfluorescein-labeled Api88, Gu-ONNRPVYIPRPRPPHPRL-NH2)] | ~23 | 1800 | 600 |
| Gu-[Orn](5(6)‑carboxyfluorescein)NNRPVYIPRPRPPHPRL-OH [cf-Api137 (5(6)-carboxyfluorescein-labeled Api137, Gu-ONNRPVYIPRPRPPHPRL-OH)] | ~10 | 4730 | 2200 |
